Reference: US20250388683A1 (VETOQUINOL, published 2025)
Like-named read-outs stand apart in the source and are kept apart here. One block for each binder: values may come before it.

Assays:
[1] = biological target: T1, canine IL-31RA expressed on HEK-Blue STAT3 canine IL-31R reporter cells (with canine OSMR) (canine); assay: cell-based or functional assay
[2] = biological target: T1, canine IL-31RA expressed on HEK-Blue …; assay: cell-based or functional assay; remark: listed apart in the source
[3] = biological target: T1, canine IL-31RA expressed on HEK-Blue …; assay: cell-based or functional assay; remark: listed apart in the source
[4] = biological target: T1, canine IL-31RA expressed on HEK-Blue …; assay: cell-based or functional assay; remark: listed apart in the source
[5] = biological target: T1, canine IL-31RA expressed on HEK-Blue …; assay: cell-based or functional assay; remark: listed apart in the source
[6] = biological target: T1, canine IL-31RA expressed on HEK-Blue …; assay: cell-based or functional assay; remark: listed apart in the source
[7] = biological target: T1, canine IL-31RA expressed on HEK-Blue …; assay: cell-based or functional assay; remark: listed apart in the source
[8] = biological target: T1, canine IL-31RA expressed on HEK-Blue …; assay: cell-based or functional assay; remark: listed apart in the source
[9] = biological target: T1, canine IL-31RA expressed on HEK-Blue …; assay: cell-based or functional assay; remark: listed apart in the source
[10] = biological target: T1, canine IL-31RA expressed on HEK-Blue …; assay: cell-based or functional assay; remark: listed apart in the source
[11] = biological target: T1, canine IL-31RA expressed on HEK-Blue …; assay: cell-based or functional assay; remark: listed apart in the source
[12] = biological target: T1, canine IL-31RA expressed on HEK-Blue …; assay: cell-based or functional assay; remark: listed apart in the source
[13] = biological target: T2, Recombinant extra cellular domain of canine IL-31 receptor A (cECD-IL-31RA), His-tagged (canine); assay: Octet K2 BLI, cIL-31RA loaded on protein A tips, antibody at 15.6, 3.91, 0.98 nM, 1:1 Langmuir local fit
T2 construct: also called cIL-31RA; cIL31r
T2 chain: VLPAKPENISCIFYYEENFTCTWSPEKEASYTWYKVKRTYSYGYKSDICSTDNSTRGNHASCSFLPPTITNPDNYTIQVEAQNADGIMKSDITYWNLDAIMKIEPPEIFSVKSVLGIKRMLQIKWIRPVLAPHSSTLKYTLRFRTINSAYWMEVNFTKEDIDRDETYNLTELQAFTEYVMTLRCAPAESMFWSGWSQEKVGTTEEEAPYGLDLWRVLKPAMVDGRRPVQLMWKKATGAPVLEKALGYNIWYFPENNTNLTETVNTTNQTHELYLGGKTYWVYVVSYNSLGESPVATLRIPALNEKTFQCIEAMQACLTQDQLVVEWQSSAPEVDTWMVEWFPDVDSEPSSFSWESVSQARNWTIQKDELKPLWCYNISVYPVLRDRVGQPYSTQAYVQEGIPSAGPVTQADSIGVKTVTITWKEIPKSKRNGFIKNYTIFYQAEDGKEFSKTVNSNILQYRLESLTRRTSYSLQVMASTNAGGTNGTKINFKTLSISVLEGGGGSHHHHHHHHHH
Method: (§1) Binding of the purified antibodies to cECD-IL-31RA was analyzed using the Octet system (BLI technology, Fortebio). Octet K2 instrument was used to measure the binding kinetics of either canine IL-31RA (cIL-31RA) or human IL31RA (hIL-31RA) to 8DE and 3F1 antibodies. cIL-31RA (see example 1) or hIL31R proteins (Acrobiosystem, Cat:ILA-H5256) were attached to the surface of the protein A (fortéBio, Part No: 18-5013) sensor tip (5 ug/ml, 200 ul, 120 sec). […] Then, the antibodies were allowed to dissociate for 600 seconds. All the dilutions were made in PBS-Tween (0.05%) solution. The measurement was corrected for baseline drift by subtracting a control sensor exposed to running buffer (PBS-Tween, 0.05%) only. Data analysis and curve fitting were carried out using the own software (local fitting, 1:1 Langmuir model) of the device.

[14] = biological target: T3, human IL31RA protein (Acrobiosystem, Cat:ILA-H5256) (human, UniProt Q8NI17 20-519, limits assumed); assay: Octet K2 BLI, receptor loaded on protein A tips, antibody in solution
T3 construct: Bought; loaded on protein A sensor tips; also called hIL-31RA; hIL31R
T3 sequence (looked up): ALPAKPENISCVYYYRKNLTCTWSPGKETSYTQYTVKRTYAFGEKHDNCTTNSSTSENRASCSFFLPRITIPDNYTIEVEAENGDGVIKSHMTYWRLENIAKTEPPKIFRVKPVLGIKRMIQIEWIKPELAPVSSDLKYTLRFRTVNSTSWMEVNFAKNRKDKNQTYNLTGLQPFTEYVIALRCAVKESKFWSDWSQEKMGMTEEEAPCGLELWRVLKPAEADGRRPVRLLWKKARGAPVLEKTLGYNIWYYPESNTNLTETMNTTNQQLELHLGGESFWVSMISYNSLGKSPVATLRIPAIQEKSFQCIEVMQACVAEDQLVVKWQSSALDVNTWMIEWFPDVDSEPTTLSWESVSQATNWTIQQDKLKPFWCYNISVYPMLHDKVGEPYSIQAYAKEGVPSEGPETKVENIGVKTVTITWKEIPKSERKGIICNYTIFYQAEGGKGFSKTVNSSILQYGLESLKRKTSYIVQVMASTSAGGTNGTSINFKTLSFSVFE
Method: as §1

[15] = biological target: T1, canine IL-31RA expressed on HEK-Blue …; assay: cell-based or functional assay; remark: listed apart in the source

B1: scFab-Fc-VTQ2101 (scFab-VTQ2101-HLλcap-GS18-Canine IgG2B-LALAPG-Fc) (Fc fusion)
chain: RIVMTQSPGSLAGSVGESVSINCKSSQSVTNDLTWYQQKPGEAPKVLITYASQRYTGVPARFSGSGYGTDFTLTINNLQAEDVGDYFCQQDYASPFTFGQGTKLEIKRNDAQPAVYLFQPSPDQLHTGSASVVCLLNSFYPKDINVKWKVDGVIQDTGIQESVTEQDKDSTYSLSSTLTMSSTEYLSHELYSCEITHKSLPSTLIKSFQRSECGGSSGSGSGSTGTSSSGTGTSAGTTGTSASTSGSGSGGGGGSGGGGSAGGEVTLQESGPGLVKPSQTLSLTCVASGFSIKSSFIHWLRQRPGRGLEWIGRIDPAFGATEYNPAFQGRFSITADTAKNQASLQLSSMTTEDSAVYYCARYHYAASHFDAWGQGTLVTVSSASTTAPSVFPLAPSCGSTSGSTVALACLVSGYFPEPVTVSWNSGSLTSGVHTFPSVLQSSGLYSLSSMVTVPSSRWPSETFTCNVAHPASKTKVDKPVPKRENGRVPRPPDCPKCPAPEAAGGPSVFIFPPKPKDTLLIARTPEVTCVVVDLDPEDPEVQISWFVDGKQMQTAKTQPREEQFNGTYRVVSVLPIGHQDWLKGKQFTCKVNNKALGSPIERTISKARGQAHQPSVYVLPPSREELSKNTVSLTCLIKDFFPPDIDVEWQSNGQQEPESKYRTTPPQLDEDGSYFLYSKLSVDKSRWQRGDTFICAVMHEALHNHYTQESLSHSPG
IC50 (read off the curve); STAT3-SEAP reporter, canine IL-31 stimulation [1]: ~0.8 nM
IC50 ratio (IC50 candidate/IC50 VTQ2101) [2]: 1.3 ratio

B2: 8D3-VHL/8D3-VLH caninized antibody (VTQ2101) (antibody, V domains shown)
VH: EVTLQESGPGLVKPSQTLSLTCVASGFSIKSSFIHWLRQRPGRGLEWIGRIDPAFGATEYNPAFQGRFSITADTAKNQASLQLSSMTTEDSAVYYCARYHYAASHFDAWGQGTLVTVSS
VL: RIVMTQSPGSLAGSVGESVSINCKSSQSVTNDLTWYQQKPGEAPKVLITYASQRYTGVPARFSGSGYGTDFTLTINNLQAEDVGDYFCQQDYASPFTFGQGTKLEIK
IC50 (read off the curve); STAT3-SEAP reporter, canine IL-31 stimulation [3]: ~0.05 nM
Mean IC50 (nM) (n = 3), HEK-Blue cell-based SEAP assay [4]: 0.33 nM
IC50 (read off the curve); STAT3-SEAP reporter, canine IL-31 stimulation [1]: ~0.6 nM
IC50 (read off the curve); STAT3-SEAP reporter, canine IL-31 stimulation [5]: ~1 nM
IC50 ratio (IC50 candidate/IC50 VTQ2101) [2]: 1 ratio
IC50 ratio (IC50 candidate/IC50 VTQ2101) [6]: 1 ratio
IC50 (read off the curve); STAT3-SEAP reporter, canine IL-31 stimulation [7]: ~0.6 nM
IC50 (read off the curve); STAT3-SEAP reporter, canine IL-31 stimulation [8]: ~0.3 nM
IC50 (read off the curve); STAT3-SEAP reporter, canine IL-31 stimulation [9]: ~0.6 nM
IC50 (read off the curve); STAT3-SEAP reporter, canine IL-31 stimulation [10]: ~0.6 nM
IC50 (read off the curve); STAT3-SEAP reporter, canine IL-31 stimulation [11]: ~1 nM
IC50 ratio (IC50 candidate/IC50 VTQ2101) [12]: 1 ratio

B4: 8D3 chimeric canine IgGB antibody (antibody, V domains shown)
VH: EVQLQQSGAELVKPGASVKLSCTASGFNIKDSFIHWLKQRPEQGLEWIGRIDPANGNTEYDPNFQGKDTITADTSSNTAYLQVSSLTSEDTAVYYCARYYYGNSHFDCWGQGTTLTVSS
VL: RIVMNQTPKFLPISAGDRVIITCKASQSVTNDVTWYQQKPGQSPKVLIHYASNRYTGVPDRFTGSGYGTDFTFTISTVQAEDLAVYFCQQDYSSPFTFGSGTKLEIK
notes: also called chimeric 8D3
Mean IC50 (nM) (n = 3), HEK-Blue cell-based SEAP assay [4]: 0.43 nM
Kd [13]: < 0.001 nM
binding result [14]: no binding
IC50 (read off the curve); STAT3-SEAP reporter, canine IL-31 stimulation [15]: ~0.5 nM

The next lines start with the values.

IC50 ratio (IC50 candidate/IC50 VTQ2101) [2]: 1.5 ratio
IC50 (read off the curve); STAT3-SEAP reporter, canine IL-31 stimulation [7]: ~1 nM
B3: scFv-HLλcap-Fc-VTQ2102 (scFv-VTQ2102-HLλcap-GS18-Canine IgG2B-LALAPG-Fc) (Fc fusion)
scFv: EVTLQESGPGLVKPSQTLSLTCVASGFSIKSSFIHWLRQRPGRGLEWIGRIDPAFGATEYNPAFQGRFSITADTAKNQASLQLSSMTTEDSAVYYCARYHYAASHFDAWGQGTLVTVSSGSTSGGGSGGGSGGGGSSRIVMTQSPGSLAGSVGESVSINCKSSQSVTNDLTWYQQKPGEAPKVLITYASQRYTGVPARFSGSGYGTDFTLTINNLQAEDVGDYFCQQDYASPFTFGGGTKLTVLGPKRENGRVPRPPDCPKCPAPEAAGGPSVFIFPPKPKDTLLIARTPEVTCVVVDLDPEDPEVQISWFVDGKQMQTAKTQPREEQFNGTYRVVSVLPIGHQDWLKGKQFTCKVNNKALGSPIERTISKARGQAHQPSVYVLPPSREELSKNTVSLTCLIKDFFPPDIDVEWQSNGQQEPESKYRTTPPQLDEDGSYFLYSKLSVDKSRWQRGDTFICAVMHEALHNHYTQESLSHSPG

IC50 ratio (IC50 candidate/IC50 VTQ2101) [2]: 1.7 ratio
IC50 (read off the curve); STAT3-SEAP reporter, canine IL-31 stimulation [9]: ~1 nM
B5: scFv-VTQ2101-LHλcap-Fc (scFv-VTQ2101-LHλcap-GS18-Canine IgG2B-LALAPG-Fc) (Fc fusion)
scFv: RIVMTQSPGSLAGSVGESVSINCKSSQSVTNDLTWYQQKPGEAPKVLITYASQRYTGVPARFSGSGYGTDFTLTINNLQAEDVGDYFCQQDYASPFTFGGGTKLTVLGGSTSGGGSGGGSGGGGSSEVTLQESGPGLVKPSQTLSLTCVASGFSIKSSFIHWLRQRPGRGLEWIGRIDPAFGATEYNPAFQGRFSITADTAKNQASLQLSSMTTEDSAVYYCARYHYAASHFDAWGQGTLVTVSSPKRENGRVPRPPDCPKCPAPEAAGGPSVFIFPPKPKDTLLIARTPEVTCVVVDLDPEDPEVQISWFVDGKQMQTAKTQPREEQFNGTYRVVSVLPIGHQDWLKGKQFTCKVNNKALGSPIERTISKARGQAHQPSVYVLPPSREELSKNTVSLTCLIKDFFPPDIDVEWQSNGQQEPESKYRTTPPQLDEDGSYFLYSKLSVDKSRWQRGDTFICAVMHEALHNHYTQESLSHSPG
